Consider three proteins from patent publication US20070298494A1 (KANSAS STATE UNIVERSITY RESEARCH FOUNDATION, published 2007).

The chains are these.
B1: C-K4-M2GlyR (peptide)
peptide: PARVGLGITTVLTMTTQSSGSRAKKKK
notes: Synthetic peptide; tested for association with itself in solution by BS3 cross-linking and SDS-PAGE; also called CK4ALB
B2: NK4A'Wa' (peptide)
peptide: KKKKAARVGLGITTVWVTTIGLGVRAA
notes: Synthetic peptide; tested for association with itself in solution by BS3 cross-linking and SDS-PAGE
B3: N-K4-M2GlyR (peptide)
peptide: KKKKPARVGLGITTVLTMTTQSSGSRA
notes: Synthetic peptide; tested for association with itself in solution by BS3 cross-linking and SDS-PAGE; also called NK4ALB

This series concerns the molecule itself. Put plainly: BS3 chemical cross-linking in solution, SDS-PAGE, silver stain; association of the peptide with itself. As for the experimental part:
In order to visualize the oligomeric state of the peptide in solution a chemical cross-linking protocol was developed. Calculated amounts of each peptide were weighted out and dissolved in 1 mL of distilled water to make 1 mM stock solutions. A 100 mM stock solution of the chemical crosslinking reagent Bis[Sulfosuccinimidyl]suberate, BS³, (Pierce Chemical Co., Rockford, Ill.) was prepared in dimethyl sulfoxide (DMSO). In typical reactions, 5-30 μL of 1.0 mM stock solution of peptide are added to 64-94 μL of 10 mM HEPES buffer, pH 8.1 to give a range of concentrations starting at 50 μM rising up to 300 μM. Sample were allowed to sit at room temperature for 15 minutes. 1-6 μL of 100 mM BS³ was then added to the previously prepared peptide such that the crosslinking reagent was present in 20-fold excess. The final volume for each reaction was 100 μL. After reacting for 30 minutes, the reaction was stopped with the addition of 10 μL 1.0 N HCl. Each sample was then vacuum dried. Later dry samples were re-dissolved in 60 μL of distilled water along with 60 μL of a 2×-tricine SDS sample buffer (Novex, San Diego). All samples were then boiled at 100° C. for 5 minutes. 5 μL aliquots of each SDS boiled sample was then loaded into separate lanes of pre-cast, 1.0 mm, 10 well, 10-20% tricine gels (Novex, San Diego). Pre-made Novex tricine-SDS buffer was used in the electrophoresis. The reference well contained 1 μL of MultiMark® multi-colored molecular weight standard (Novex, San Diego). The electrophoresis was carried out at a constant 110 Volts for 90 minutes. The gel was then fixed in 40% methanol in water and the cross-linked peptides visualized using silver staining (SilverXpress® silver staining kit, Invitrogen, Carlsbad, Calif.).
On to B1, for which the binding result was “binds”.
For the protein B2, the binding result is given as “no binding”.
On to B3, for which the binding result is reported as “binds”.
